From patent publication US11957762B2, “Immune tolerant and non-immune tolerant elastin-like recombinant peptides and methods of use” (University of Utah Research Foundation, priority 2015, dated 2024) come the findings set out here.

“And” between values parts separate entries of the source, which are not always exact repeats. Equal values may be shown once.

Usually IC50 stands for the concentration at which inhibition is half-maximal.

In one series the test system is regular 4T1-luc cells. The series can be described thus: Cytotoxicity, regular 4T1-luc cells. The series is classed as cell-based, murine. The following applies: Mus musculus; regular 4T1-luc cells, 72 hours; read-out: IC50. On the procedure: Cytotoxicity studies. The cytotoxicity was measured as previously described (Zhao, et al; Mol. Pharm, 2014; 11(8):2703-12). The incubation time was 72 hours. 4T1-lu mammosphere cells were generated as the previously described (Zhao, et al; Mol. Pharm, 2014; 11(8):2703-12).

Series [1] has as its system C57BL/6 mice. The experiment in a line: In vivo CTL response by ELISPOT IFN-γ assay. Also on record: species or system mouse. The conditions noted are these: subcutaneous immunization twice, 2 nmol SIINFEKL equivalents per mouse with IFA. An excerpt:
in vivo CTL response by ELISPOT IFN-γ assay. C57BL/6 mice were immunized subcutaneously with each immunogen (2 nmol […] equivalents per mouse) together with incomplete Freunds Adjuvants (IFA; Sigma, USA) at their left flanks. The immunization was repeated at their right flanks 1 week later. At 10 days after the second immunization, mice were sacrificed, and the spleens were harvested. The spleens of the sacrificed mice were teased into single-cell suspensions and filtered through nylon mesh […]. Red blood cells were lysed by Ammonium-Chloride-Potassium (ACK) lysing buffer. The washed and resuspended single cells were counted using Contess™ Automated Cell Counter (Invitrogen, USA). Splenocytes (8×10^6/mL) were incubated in RPMI-1640 medium supplemented with 10% heat inactivated fetal calf serum, 2 mM glutamine, 100 units/mL penicillin and 100 μg/mL streptomycin (Invitrogen, USA), in a 14 mL polypropylene tissue culture tube for 48 hours, with or without […] peptide (SEQ ID NO: 22) (2.5 μg/mL). The cells were then washed and recounted. 2×10^5 live cells in 100 μL medium were then loaded into wells of 96-well Filtration plates (Millipore, USA) coated with […] of capture anti-mouse IFN-γ mAb (Clone: R4-6A2, Biolegend, USA). Triplicates were set up for each condition. Cells were discarded after 24 hours of culture and the wells were incubated with […] of detectionbiotinylated, anti-mouse IFN-γ mAb overnight (Clone: XMG1.2-Biotin, Biolegend, USA). After the unbound antibodies were washed away from the wells, the bound antibodies were detected using horseradish peroxidase (HRP Avidin, Biolegend, USA) together with 3-amino-9-ethyl-carbazole (AEC) substrate (Sigma, USA). The membranes on the bottom of the wells were peeled off, and color spots on the membrane were scanned. The spots were automatically counted using ImageJ software.
Animal immunization. C57BL/6 mice were immunized by the subcutaneous injection of 2 nmol iTEP NP vaccines and incomplete Freunds Adjuvants (IFA; Sigma, USA) at their left flanks. Immunization was repeated at their right flanks after 1 week. On day 10 after the second immunization, mice were sacrificed, and the spleens were harvested.

Another series deals with B3Z cells. The series can be described thus: B3Z CD8+ T cell hybridoma activation assay. The following applies: DC2.4 cells pre-incubated with antigen. The series is classed as cell-based. The procedure: B3Z CD8+ T cell hybridoma activation assay. B3Z cells (a gift from N. Shastri) are a CD8+ T-cell hybridoma engineered to secrete β-galactosidase when their T-cell receptors are engaged with an […]:H2K^b complex.^(33) To do this assay, 1×10^5 DC2.4 cells/well were set in 96-well plates. OVA, […] peptide (SEQ ID NO: 22), and iTEP-pOVA NP (SEQ ID NO: 56) at indicated concentrations were loaded into the cell culture for 16 hours and then washed away. 1×10^5 B3Z cells/well were added to the DC2.4 cell culture and co-cultured with DC2.4 cells for 24 hours. The cells were washed with PBS before 100 μL of lysis buffer (PBS with 100 mM 2-mercaptoethanol, 9 mM MgCl2, 0.125% NP-40) together with 0.15 mM chlorophenol red β-galactoside were added into the wells. After the plates were incubated at 37° C. for 4 hours, the reaction was stopped with 50 μL/well of 15 mM EDTA and 300 mM glycine. The OD at 570 nm was measured and the OD at 630 nm was used as reference. The OD was used as an indicator as activation status of B3Z cells.
Activation of B3Z hybridoma (CD8+T) cells. This assay was done with a protocol described previously (Cho et al., J Drug Target, 2015; p 1-12).

The test system of the next series is DC2.4 cells. The experiment in a line: Presentation of the CTL epitope […] by DCs (flow cytometry). Format: cell-based, murine. The conditions noted are these: 16 h incubation with DC2.4 cells. The procedure:
Presentation of the CTL epitope, […], by DCs. Cells of a murine DC line (DC2.4, a gift from K. Rock)^(32) were plated at 2.5×10^5/500 μL/well in 24-well plates. 500 μL of OVA, […] peptide (SEQ ID NO: 22), or iTEPB-iTEPA-pOVA NP (SEQ ID NO: 56) (iTEP-pOVA NP hereafter) were dissolved in cell culture media and added to the wells containing DCs. The cells were further cultured for 16 hrs. at 37° C. with 5% CO2 before they were collected and washed with PBS. The MHC class I complex, H-2kb/[…] presented on DC surface was stained with a PE-tagged monoclonal antibody 25-D1.16 (Biolegend, 1:100 dilution) and quantified with flow cytometry (5×10^4 events collected per sample). The data are presented as MFI normalized to the MFI of untreated DC2.4 cells.
Presentation of […] epitope vaccine by DCs. The presentation was studied as previously described (Cho et al., J Drug Target, 2015; p 1-12). The concentration of iTEP-vaccine fusions (NPs) used in this experiment was 5 μM. The results of presentation were shown as mean fluorescence intensity (MFI) of 5000 treated, live cells in a given treatment, which were normalized to the MFI value of untreated DC2.4 cells.
(In flow cytometry, cells or beads pass a laser one at a time.)

A short description of series [2]: Thermally-induced reversible phase transition (turbidity OD350 vs temperature). Format: physicochemical. An excerpt: Characterization of thermally-induced, reversible, inverse phase transition of iTEPs and the iTEPB-iTEPA-pOVA fusion. The phase transitions of iTEP or iTEP fusions were characterized by turbidity changes of sample solutions as a function of temperature. Specifically, the optical density at 350 nm (OD350) of a sample solution was monitored using an UV-visible spectrophotometer equipped with a multi-cell thermoelectric temperature controller (Cary 300, Varian Instruments, Walnut Creek, CA) while the solution was heated from 20° C. to 80° C. and then cooled to 20° C. at a rate of 1° C./min. The maximum first derivative of the turbidity curve of a sample was identified. The transition temperature (Tt) of the sample is the temperature that corresponds to the maximum derivative.

Series [3] relates to C57BL/6 mice. The experiment in a line: Humoral immunogenicity: IgG titers by ELISA in sera of immunized mice. The following applies: mouse, in vivo. The procedure:
Immunization of iTEPs and collection of immune sera. C57BL/6 mice were immunized twice at their right hocks with iTEPs at a dose of 100 μg/mouse. […] At 1 week after the second immunization, 100 μL blood was collected from each immunized mouse. The blood samples were allowed to sit for 30 minutes to one hour at room temperature to clot. Sera were collected from the blood samples after the samples were spun for 10 min at 14,000 rpm at 4° C. The sera were kept at −80° C. before an analysis of the titers of iTEP-specific IgG.
Determination of IgG titers by ELISA. […] Plates were read at OD 450 nm (minus 570 nm for wavelength correction).
The end point titer of a serum IgG was defined as the reciprocal of the higher serum dilution which OD value from the ELISA assay is higher than a statistically valid cutoff. The titer results were expressed as IgG titers (Log 10) for each sample. […] The value of the cutoff was calculated using the following equation:^(31) Cutoff=X+SD t√{square root over (1+(1/n))} where X is the mean absorbance readings of independent PBS control sera, SD is the standard deviation of the readings, n is the number of independent PBS controls (mouse samples), t is the (1−α)th percentile of the one-tailed t-distribution with v=n−1 degrees of freedom.

With `CC(=O)O[C@H]1C(=O)[C@@]2(C)[C@H]([C@H](OC(=O)c3ccccc3)[C@]3(O)C[C@H](OC(=O)[C@H](O)[C@@H](NC(=O)c4ccccc4)c4ccccc4)C(C)=C1C3(C)C)[C@]1(OC(C)=O)CO[C@@H]1C[C@@H]2O` [PTX, paclitaxel, reference compound], the IC50 in the series on regular 4T1-luc cells came to 6.3 nM.
Turning to SIINFEKL [reference compound], in the series on C57BL/6 mice [1], the “SIINFEKL-restricted activated splenocytes (INF-γ ELISPOT)” value is 60 spots per million seeded splenocytes. Also, in the series on B3Z cells, the “activation of B3Z cells” value is reported as “highest activity among all treatments”. In addition, the “presentation of SIINFEKL by DCs” value with DC2.4 cells is on record as “much stronger”.

B1: G(…)21GG (protein)
chain: GVPGLGAGAGVPGLGAGAGVPGLGAGAGVPGLGAGAGVPGLGAGAGVPGLGAGAGVPGLGAGAGVPGLGAGAGVPGLGAGAGVPGLGAGAGVPGLGAGAGVPGLGAGAGVPGLGAGAGVPGLGAGAGVPGLGAGAGVPGLGAGAGVPGLGAGAGVPGLGAGAGVPGLGAGAGVPGLGAGAGVPGLGAGAGVPGLGAGAGVPGLGAGAGVPGLGAGAGVPGLGAGAGVPGLGAGAGVPGLGAGAGVPGLGAGAGVPGLGAGAGVPGLGAGAGVPGLGAGAGVPGLGAGAGVPGLGAGAGVPGLGAGAGVPGLGAGAGVPGLGAGAGVPGLGAGAGVPGLGAGAGVPGLGAGAGVPGLGAGAGVPGLGAGAGVPGLGAGAGVPGLGAGAGVPGLGAGAGVPGLGAGAGVPGLGAGAGVPGLGAGAGVPGLGAGAGVPGLGAGAGVPGLGAGAGVPGLGAGAGVPGLGAGAGVPGLGAGAGVPGLGAGAGVPGLGAGAGVPGLGAGAGVPGLGAGAGVPGLGAGAGVPGLGAGAGVPGLGAGAGVPGLGAGAGVPGLGAGAGVPGLGAGAGVPGLGAGAGVPGLGAGAGVPGLGAGAGVPGLGAGAGVPGLGAGAGVPGLGAGAGVPGLGAGAGVPGLGAGAGVPGLGAGAGVPGLGAGAGVPGLGAGAGVPGLGAGAGVPGLGAGAGVPGLGAGAGVPGLGAGAGVPGLGAGAGVPGLGAGAGVPGLGAGAGVPGLGAGAGVPGLGAGAGVPGLGAGAGVPGLGAGAGVPGLGAGAGVPGLGAGAGVPGLGAGAGVPGLGAGAGVPGLGAGAGVPGLGAGAGVPGLGAGAGVPGLGAGAGVPGLGAGAGVPGLGAGAGVPGLGAGAGGG
As to B1, the “Relative Hydrophobicity” value in series [2] is recorded as “High”. The “(heating) Tt” value in series [2] (5 μM) was determined as 50.5 °C. In series [2] (25 μM in H2O), the “Tt (cooling)” value turned out to be 34.00 ± 0.58 °C; the “Tt (heating)” value is 35.7 °C and 35.70 ± 0.58 °C. The humoral immunogenicity result in the series on C57BL/6 mice [3] was “did not show different immunogenicity”.
